The data set addresses T1, Act1 SEFIR (wild type) (UniProt Q8N7N6 390-531).
T1 sequence: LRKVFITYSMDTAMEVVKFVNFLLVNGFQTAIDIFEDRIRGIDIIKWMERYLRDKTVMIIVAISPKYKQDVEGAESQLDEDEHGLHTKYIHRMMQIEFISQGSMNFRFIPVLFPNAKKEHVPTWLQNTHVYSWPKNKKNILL
Put plainly: competition.

B1: Hif1α aptamer (SBE) (structured_RNA)
RNA: UAAUGCUCUUUUUAAUAUGUUCUUUUAAUGCCAGAUCACAGCACAUUCACAGCU
modifications: chemically modified RNA oligo (modification not specified)
B1: the binding result was “binds”.

These data come from article PMC8996325.
